{
  "source": "IntAct's records for PubMed 24510189",
  "parents": {"B1": {"name": "mRNA-decapping enzyme 1A (Homo sapiens), Q9NPI6 (parent)", "chain": "MEALSRAGQEMSLAALKQHDPYITSIADLTGQVALYTFCPKANQWEKTDIEGTLFVYRRSASPYHGFTIVNRLNMHNLVEPVNKDLEFQLHEPFLLYRNASLSIYSIWFYDKNDCHRIAKLMADVVEEETRRSQQAARDKQSPSQANGCSDHRPIDILEMLSRAKDEYERNQMGDSNISSPGLQPSTQLSNLGSTETLEEMPSGSQDKSAPSGHKHLTVEELFGTSLPKEQPAVVGLDSEEMERLPGDASQKEPNSFLPFPFEQLGGAPQSETLGVPSAAHHSVQPEITTPVLITPASITQSNEKHAPTYTIPLSPVLSPTLPAEAPTAQVPPSLPRNSTMMQAVKTTPRQRSPLLNQPVPELSHASLIANQSPFRAPLNVTNTAGTSLPSVDLLQKLRLTPQHDQIQTQPLGKGAMVASFSPAAGQLATPESFIEPPSKTAAARVAASASLSNMVLAPLQSMQQNQDPEVFVQPKVLSSAIPVAGAPLVTATTTAVSSVLLAPSVFQQTVTRSSDLERKASSPSPLTIGTPESQRKPSIILSKSQLQDTLIHLIKNDSSFLSTLHEVYLQVLTKNKDNHNL"}},
  "data": [
    {"variants_of": "B1", "conditions": "with dcp2_human DCP2, Q8IU60", "values": [
      {"variant": "MEALSRAGQEMALAALKQADPYITSIADLTGQVALYTFCPKANQWEKTDIEGTLFVYRRSASPYHGFTIVNRLNMHNLVEPVNKDLEFQLHEPFLLYRNASLSIYSIWFYDKNDCHRIAKLMADVVEEETRRSQQAARDKQSPSQANGCSDHRPIDILEMLSRAKDEYERNQMGDSNISSPGLQPSTQLSNLGSTETLEEMPSGSQDKSAPSGHKHLTVEELFGTSLPKEQPAVVGLDSEEMERLPGDASQKEPNSFLPFPFEQLGGAPQSETLGVPSAAHHSVQPEITTPVLITPASITQSNEKHAPTYTIPLSPVLSPTLPAEAPTAQVPPSLPRNSTMMQAVKTTPRQRSPLLNQPVPELSHASLIANQSPFRAPLNVTNTAGTSLPSVDLLQKLRLTPQHDQIQTQPLGKGAMVASFSPAAGQLATPESFIEPPSKTAAARVAASASLSNMVLAPLQSMQQNQDPEVFVQPKVLSSAIPVAGAPLVTATTTAVSSVLLAPSVFQQTVTRSSDLERKASSPSPLTIGTPESQRKPSIILSKSQLQDTLIHLIKNDSSFLSTLHEVYLQVLTKNKDNHNL", "note": "[S12A;H19A]", "effect of a mutation on the interaction": "decreasing interaction strength"},
      {"variant": "MEALSRAGQEMALAALKAADPYITSIADLTGQVALYTFCPKANQWEKTDIEGTLFVYRRSASPYHGFTIVNRLNMHNLVEPVNKDLEFQLHEPFLLYRNASLSIYSIWFYDKNDCHRIAKLMADVVEEETRRSQQAARDKQSPSQANGCSDHRPIDILEMLSRAKDEYERNQMGDSNISSPGLQPSTQLSNLGSTETLEEMPSGSQDKSAPSGHKHLTVEELFGTSLPKEQPAVVGLDSEEMERLPGDASQKEPNSFLPFPFEQLGGAPQSETLGVPSAAHHSVQPEITTPVLITPASITQSNEKHAPTYTIPLSPVLSPTLPAEAPTAQVPPSLPRNSTMMQAVKTTPRQRSPLLNQPVPELSHASLIANQSPFRAPLNVTNTAGTSLPSVDLLQKLRLTPQHDQIQTQPLGKGAMVASFSPAAGQLATPESFIEPPSKTAAARVAASASLSNMVLAPLQSMQQNQDPEVFVQPKVLSSAIPVAGAPLVTATTTAVSSVLLAPSVFQQTVTRSSDLERKASSPSPLTIGTPESQRKPSIILSKSQLQDTLIHLIKNDSSFLSTLHEVYLQVLTKNKDNHNL", "note": "[S12A;Q18A;H19A]", "effect of a mutation on the interaction": "disrupting interaction strength"},
      {"variant": "MEALSRAGQEMSLAALKAADPYITSIADLTGQVALYTFCPKANQWEKTDIEGTLFVYRRSASPYHGFTIVNRLNMHNLVEPVNKDLEFQLHEPFLLYRNASLSIYSIWFYDKNDCHRIAKLMADVVEEETRRSQQAARDKQSPSQANGCSDHRPIDILEMLSRAKDEYERNQMGDSNISSPGLQPSTQLSNLGSTETLEEMPSGSQDKSAPSGHKHLTVEELFGTSLPKEQPAVVGLDSEEMERLPGDASQKEPNSFLPFPFEQLGGAPQSETLGVPSAAHHSVQPEITTPVLITPASITQSNEKHAPTYTIPLSPVLSPTLPAEAPTAQVPPSLPRNSTMMQAVKTTPRQRSPLLNQPVPELSHASLIANQSPFRAPLNVTNTAGTSLPSVDLLQKLRLTPQHDQIQTQPLGKGAMVASFSPAAGQLATPESFIEPPSKTAAARVAASASLSNMVLAPLQSMQQNQDPEVFVQPKVLSSAIPVAGAPLVTATTTAVSSVLLAPSVFQQTVTRSSDLERKASSPSPLTIGTPESQRKPSIILSKSQLQDTLIHLIKNDSSFLSTLHEVYLQVLTKNKDNHNL", "note": "[Q18A;H19A]", "effect of a mutation on the interaction": "decreasing interaction strength"},
      {"variant": "MEALSRAGQEMSLAALKQADPYITSIADLTGQVALYTFCPKANQWEKTDIEGTLFVYRRSASPYHGFTIVNRLNMHNLVEPVNKDLEFQLHEPFLLYRNASLSIYSIWFYDKNDCHRIAKLMADVVEEETRRSQQAARDKQSPSQANGCSDHRPIDILEMLSRAKDEYERNQMGDSNISSPGLQPSTQLSNLGSTETLEEMPSGSQDKSAPSGHKHLTVEELFGTSLPKEQPAVVGLDSEEMERLPGDASQKEPNSFLPFPFEQLGGAPQSETLGVPSAAHHSVQPEITTPVLITPASITQSNEKHAPTYTIPLSPVLSPTLPAEAPTAQVPPSLPRNSTMMQAVKTTPRQRSPLLNQPVPELSHASLIANQSPFRAPLNVTNTAGTSLPSVDLLQKLRLTPQHDQIQTQPLGKGAMVASFSPAAGQLATPESFIEPPSKTAAARVAASASLSNMVLAPLQSMQQNQDPEVFVQPKVLSSAIPVAGAPLVTATTTAVSSVLLAPSVFQQTVTRSSDLERKASSPSPLTIGTPESQRKPSIILSKSQLQDTLIHLIKNDSSFLSTLHEVYLQVLTKNKDNHNL", "note": "[H19A]", "effect of a mutation on the interaction": "with no effect"},
      {"variant": "MEALSRAGQEMSLAALKQHDPYITSIADLTGQVALYTFCPKANQWEKTDIEGTLFVYRRSASPYHGFTIVNRLNMHNLVEPVNKDLEFQLHEPFLLYRNASLSIYSIWFYDKNDCHRIAKLMADVVEEETRRSQQAARDKQSPSQANGCSDHRPIDILEMLSRAKDEYERNQMGDSNISSPGLQPSTQLSNLGSTETLEEMPSGSQDKSAPSGHKHLTVEELFGTSLPKEQPAVVGLDSEEMERLPGDASQKEPNSFLPFPFEQLGGAPQSETLGVPSAAHHSVQPEITTPVLITPASITQSNEKHAPTYTIPLSPVLSPTLPAEAPTAQVPPSLPRNSTMMQAVKTTPRQRSPLLNQPVPELSHASLIANQSPFRAPLNVTNTAGTSLPSVDLLQKLRLTPQHDQIQTQPLGKGAMVASFSPAAGQLATPESFIEPPSKTAAARVAASASLSNMVLAPLQSMQQNQDPEVFVQPKVLSSAIPVAGAPLVTATTTAVSSVLLAPSVFQQTVTRSSDLERKASSPSPLTIGTPESQRKPSIILSKSQLQDTLIHSIKNDSSRLSTSHEVYLQVLTKNKDNHNL", "note": "[L554S;F561R;L565S]", "effect of a mutation on the interaction": "disrupting interaction strength"}
    ]},
    {"variants_of": "B1", "conditions": "with pnrc2_human PNRC2, Q9NPJ4", "values": [
      {"variant": "MEALSRAGQEMALAALKAADPYITSIADLTGQVALYTFCPKANQWEKTDIEGTLFVYRRSASPYHGFTIVNRLNMHNLVEPVNKDLEFQLHEPFLLYRNASLSIYSIWFYDKNDCHRIAKLMADVVEEETRRSQQAARDKQSPSQANGCSDHRPIDILEMLSRAKDEYERNQMGDSNISSPGLQPSTQLSNLGSTETLEEMPSGSQDKSAPSGHKHLTVEELFGTSLPKEQPAVVGLDSEEMERLPGDASQKEPNSFLPFPFEQLGGAPQSETLGVPSAAHHSVQPEITTPVLITPASITQSNEKHAPTYTIPLSPVLSPTLPAEAPTAQVPPSLPRNSTMMQAVKTTPRQRSPLLNQPVPELSHASLIANQSPFRAPLNVTNTAGTSLPSVDLLQKLRLTPQHDQIQTQPLGKGAMVASFSPAAGQLATPESFIEPPSKTAAARVAASASLSNMVLAPLQSMQQNQDPEVFVQPKVLSSAIPVAGAPLVTATTTAVSSVLLAPSVFQQTVTRSSDLERKASSPSPLTIGTPESQRKPSIILSKSQLQDTLIHLIKNDSSFLSTLHEVYLQVLTKNKDNHNL", "note": "[S12A;Q18A;H19A]", "effect of a mutation on the interaction": "with no effect"},
      {"variant": "MEALSRAGQEMSLAALKQHDPYITSIADLTGQVALYTFCPKANQWEKTDIEGTLFVYRRSASPYHGFTIVNGLGMHNLVEPVNKDLEFQLHEPFLLYRNASLSIYSIWFYDKNDCHRIAKLMADVVEEETRRSQQAARDKQSPSQANGCSDHRPIDILEMLSRAKDEYERNQMGDSNISSPGLQPSTQLSNLGSTETLEEMPSGSQDKSAPSGHKHLTVEELFGTSLPKEQPAVVGLDSEEMERLPGDASQKEPNSFLPFPFEQLGGAPQSETLGVPSAAHHSVQPEITTPVLITPASITQSNEKHAPTYTIPLSPVLSPTLPAEAPTAQVPPSLPRNSTMMQAVKTTPRQRSPLLNQPVPELSHASLIANQSPFRAPLNVTNTAGTSLPSVDLLQKLRLTPQHDQIQTQPLGKGAMVASFSPAAGQLATPESFIEPPSKTAAARVAASASLSNMVLAPLQSMQQNQDPEVFVQPKVLSSAIPVAGAPLVTATTTAVSSVLLAPSVFQQTVTRSSDLERKASSPSPLTIGTPESQRKPSIILSKSQLQDTLIHLIKNDSSFLSTLHEVYLQVLTKNKDNHNL", "note": "[R72G;N74G]", "effect of a mutation on the interaction": "with no effect"}
    ]},
    {"variants_of": "B1", "conditions": "with dcp2_human DCP2, Q8IU60", "remark": "another data set of the same source", "values": [
      {"variant": "MEALSRAGQEMSLAALKQHDPYITSIADLTGQVALYTFCPKANQWEKTDIEGTLFVYRRSASPYHGFTIVNRLNMHNLVEPVNKDLEFQLHEPFLLYRNASLSIYSIWFYDKNDCHRIAKLMADVVEEETRRSQQAARDKQSPSQANGCSDHRPIDILEMLSRAKDEYERNQMGDSNISSPGLQPSTQLSNLGSTETLEEMPSGSQDKSAPSGHKHLTVEELFGTSLPKEQPAVVGLDSEEMERLPGDASQKEPNSFLPFPFEQLGGAPQSETLGVPSAAHHSVQPEITTPVLITPASITQSNEKHAPTYTIPLSPVLSPTLPAEAPTAQVPPSLPRNSTMMQAVKTTPRQRSPLLNQPVPELSHASLIANQSPFRAPLNVTNTAGTSLPSVDLLQKLRLTPQHDQIQTQPLGKGAMVASFSPAAGQLATPESFIEPPSKTAAARVAASASLSNMVLAPLQSMQQNQDPEVFVQPKVLSSAIPVAGAPLVTATTTAVSSVLLAPSVFQQTVTRSSDLERKASSPSPLTIGTPESQRKPSIILSKSQLQDTLIHSIKNDSSRLSTSHEVYLQVLTKNKDNHNL", "note": "[L554S;F561R;L565S]", "effect of a mutation on the interaction": "disrupting interaction strength"},
      {"variant": "MEALSRAGQEMSLAALKQHDPYITSIADLTGQVALYTFCPKANQWEKTDIEGTLFVYRRSASPYHGFTIVNRLGMHNLVEPVNKDLEFQLHEPFLLYRNASLSIYSIWFYDKNDCHRIAKLMADVVEEETRRSQQAARDKQSPSQANGCSDHRPIDILEMLSRAKDEYERNQMGDSNISSPGLQPSTQLSNLGSTETLEEMPSGSQDKSAPSGHKHLTVEELFGTSLPKEQPAVVGLDSEEMERLPGDASQKEPNSFLPFPFEQLGGAPQSETLGVPSAAHHSVQPEITTPVLITPASITQSNEKHAPTYTIPLSPVLSPTLPAEAPTAQVPPSLPRNSTMMQAVKTTPRQRSPLLNQPVPELSHASLIANQSPFRAPLNVTNTAGTSLPSVDLLQKLRLTPQHDQIQTQPLGKGAMVASFSPAAGQLATPESFIEPPSKTAAARVAASASLSNMVLAPLQSMQQNQDPEVFVQPKVLSSAIPVAGAPLVTATTTAVSSVLLAPSVFQQTVTRSSDLERKASSPSPLTIGTPESQRKPSIILSKSQLQDTLIHLIKNDSSFLSTLHEVYLQVLTKNKDNHNL", "note": "[N74G]", "effect of a mutation on the interaction": "with no effect"}
    ]},
    {"variants_of": "B1", "conditions": "with dcp2_human DCP2, Q8IU60", "remark": "another data set of the same source", "values": [
      {"variant": "MEAESRAGQEMSLQALKQHDPYITSIADLTGQVALYTFCPKANQWEKTDIEGTLFVYRRSASPYHGFTIVNRLNMHNLVEPVNKDLEFQLHEPFLLYRNASLSIYSIWFYDKNDCHRIAKLMADVVEEETRRSQQAARDKQSPSQANGCSDHRPIDILEMLSRAKDEYERNQMGDSNISSPGLQPSTQLSNLGSTETLEEMPSGSQDKSAPSGHKHLTVEELFGTSLPKEQPAVVGLDSEEMERLPGDASQKEPNSFLPFPFEQLGGAPQSETLGVPSAAHHSVQPEITTPVLITPASITQSNEKHAPTYTIPLSPVLSPTLPAEAPTAQVPPSLPRNSTMMQAVKTTPRQRSPLLNQPVPELSHASLIANQSPFRAPLNVTNTAGTSLPSVDLLQKLRLTPQHDQIQTQPLGKGAMVASFSPAAGQLATPESFIEPPSKTAAARVAASASLSNMVLAPLQSMQQNQDPEVFVQPKVLSSAIPVAGAPLVTATTTAVSSVLLAPSVFQQTVTRSSDLERKASSPSPLTIGTPESQRKPSIILSKSQLQDTLIHLIKNDSSFLSTLHEVYLQVLTKNKDNHNL", "note": "[L4E;A14Q]", "effect of a mutation on the interaction": "with no effect"}
    ]}
  ]
}
